Tests used:
[1] = biological target: Sp1, over-expressed and purified from HeLa cells infected with a vaccinia virus expression vector (Homo sapiens (Human)) (UniProt P08047); assay: 35S-TAF110 (reticulocyte lysate) on DNA-bound Sp1 resin, SDS-PAGE, PhosphorImager
[2] = biological target: GAL4-Sp1B domain fusion (Homo sapiens (Human)) (UniProt P08047)

fold greater binding to the Sp1-containing resin than to the resin without Sp1 [1]	transcription of a reporter gene dependent on GAL4 binding sites (CAT), superactivation assay in Drosophila Schneider cells [2]	Substance
60 fold		Drosophila TAF110 (dTAFII110), full-length
	50 fold	Sp1(N539), the gln-rich A and B domains of Sp1 (from UniProt P08047)

Reference: patent US5534410
